According to US6265551A, “Form of dipeptidylpeptidase IV (CD26) found in human serum, antibodies thereto, and uses thereof” (Dana-Farber Cancer Institute, Inc., priority 1996, dated 2001):

Substrate: NCC(=O)N1CCC[C@H]1C(=O)Nc1ccc([N+](=O)[O-])cc1
Test: purified protein, by the assay type
Settings: other: rsCD26; Lineweaver-Burke transformation; substrate at different concentrations; 20.0 °C
Experimental: The DPPIV enzyme activities of the rsCD26 and serum DPPIV were analyzed by Michaelis-Menten kinetics by assessing kinetics of hydrolysis of substrate at different concentrations.
DPPIV activity: The primary substrate used for determining DPPIV activity in all assays was Gly-Pro-p-nitroanilide (Gly-Pro-pNA; Sigma), which is hydrolyzed by DPPIV to release pNA absorbing strongly at 405 nm. Kinetic assays were performed using varying amounts of substrate in order to obtain estimates of the Km and Vmax using standard Michaelis-Menten kinetics. For screening assays of DPPIV activity, 150 ml of substrate was used at 1 mg/ml (2 mM final concentration) in phosphate buffer (pH7.6, 100 mM) in 96 well flat-bottomed microtiter plates together with 10 ml of appropriately diluted sample. For samples obtained after elution from the s-Sepharose column, the pH was raised to pH7.6 by addition of 25 μl of 1M Tris-HCl, pH7.6 to the reaction mixture. One unit (U) of enzyme activity was defined as the amount of enzyme that cleaved 1 mmol of Gly-Pro-pNA/min at pH7.6 and 20° C. […] The pH optimum was determined substituting phosphate buffer (100 mM, pH4.5-pH9) in place of standard incubation buffer.

B1: recombinant soluble CD26 (rsCD26), full extracellular domain of human T cell membrane CD26/DPPIV, 105 kDa form, from transfected CHO cells (Homo sapiens) (protein)
chain: NKGTDDATADSRKTYTLTDYLKNTYRLKLYSLRWISDHEYLYKQENNILVFNAEYGNSSVFLENSTFDEFGHSINDYSISPDGQFILLEYNYVKQWRHSYTASYDIYDLNKRQLITEERIPNNTQWVTWSPVGHKLAYVWNNDIYVKIEPNLPSYRITWTGKEDIIYNGITDWVYEEEVFSAYSALWWSPNGTFLAYAQFNDTEVPLIEYSFYSDESLQYPKTVRVPYPKAGAVNPTVKFFVVNTDSLSSVTNATSIQITAPASMLIGDHYLCDVTWATQERISLQWLRRIQNYSVMDICDYDESSGRWNCLVARQHIEMSTTGWVGRFRPSEPHFTLDGNSFYKIISNEEGYRHICYFQIDKKDCTFITKGTWEVIGIEALTSDYLYYISNEYKGMPGGRNLYKIQLSDYTKVTCLSCELNPERCQYYSVSFSKEAKYYQLRCSGPGLPLYTLHSSVNDKGLRVLEDNSALDKMLQNVQMPSKKLDFIILNETKFWYQMILPPHFDKSKKYPLLLDVYAGPCSQKADTVFRLNWATYLASTENIIVASFDGRGSGYQGDKIMHAINRRLGTFEVEDQIEAARQFSKMGFVDNKRIAIWGWSYGGYVTSMVLGSGSGVFKCGIAVAPVSRWEYYDSVYTERYMGLPTPEDNLDHYRNSTVMSRAENFKQVEYLLIHGTADDNVHFQQSAQISKALVDVGVDFQAMWYTDEDHGIASSTAHQHIYTHMSHFIKQCFSLP
Km: 280 µM
